Assay results published in paper PMC6928210 (Scientific Reports, 2019).
Several values for one entry are separate records, joined by “and”; a condition that tells them apart may be missing. Equal values may be shown once. Read-outs that look alike come from different tables or passages of the source.

Key:
AtSHMT2 [1] = biological target: T1, AtSHMT2 (Arabidopsis thaliana, UniProt Q94C74); assay: Competitive binding assay vs 5-formyl-THF, quinonoid intermediate absorbance; settings: AtSHMT2, 20 mM KPi pH 8.0, 30 °C, glycine 10 mM, 5-formyl-THF varied; read-out: Ki (inhibition constant, antifolate binding to the enzyme-glycine complex)
T1 construct: the protein N-truncated at E41; The open reading frames coding for AtSHMT2 41–517 fragment; His6 (N, cleaved yes); made in house; host or cells: E. coli BL21 Gold
T1 sequence (Q94C74 41-517): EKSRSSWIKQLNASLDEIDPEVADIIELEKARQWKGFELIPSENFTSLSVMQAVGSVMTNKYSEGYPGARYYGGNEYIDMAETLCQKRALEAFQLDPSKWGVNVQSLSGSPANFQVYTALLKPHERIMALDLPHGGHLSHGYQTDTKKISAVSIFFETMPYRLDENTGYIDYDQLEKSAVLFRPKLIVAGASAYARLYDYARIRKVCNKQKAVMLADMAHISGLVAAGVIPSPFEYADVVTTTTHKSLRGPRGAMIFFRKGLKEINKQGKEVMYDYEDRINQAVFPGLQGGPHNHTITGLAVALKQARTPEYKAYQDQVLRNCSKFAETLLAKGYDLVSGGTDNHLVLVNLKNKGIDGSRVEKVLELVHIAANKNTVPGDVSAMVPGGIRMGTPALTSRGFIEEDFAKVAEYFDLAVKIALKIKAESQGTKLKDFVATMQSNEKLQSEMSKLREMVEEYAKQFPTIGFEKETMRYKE
Text: (§1) In this system, the obtained Ki values refer to binding of the antifolates to the enzyme-glycine complex.
(§2) Secondary plots of slopes as functions of antifolate concentrations were obtained from fitting of inhibition data (Fig. S2). Intercept on the X-axis gives an estimate of the inhibition constant (Ki) related to antifolate binding to the enzyme-glycine complex. Since it is known that the mitochondrial matrix has an alkaline pH (pH 8[68]) as compared to the cytosol (pH 7.3[68]), inhibition measurements were performed in 20 mM KPi buffer at pH 8.0 for AtSHMT2 and pH 7.3 for AtSHMT4 at 30 °C. […] Units of slopes are μM.
(§3) Inhibition assays were performed using 5 μM enzyme solutions. All assays were carried out at 30 °C in 20 mM KPi buffer at either pH 8.0, in the case of AtSHMT2, or pH 7.3 in the case of AtSHMT4. Methotrexate was dissolved in pure DMSO.
(§4) The intermediate develops when both ligands bind to SHMT, forming an enzyme-glycine-folate ternary complex. […] Data were analyzed to obtain estimates of the dissociation constant (Kd) and αKd (in the presence of a saturating concentration of the other ligand) for both ligands, as reported in[31].
(§5) The obtained data were used to produce double reciprocal plots and fitted to linear equations. […] Fitting of data was performed with the software PRISM (GraphPad, La Jolla, CA, USA). All experiments were performed in triplicate using a Hewlett-Packard 8453 diode-array spectrophotometer (Agilent Technologies, Santa Clara, CA).
(§6) Absorbance at 505 nm (AtSHMT2) or 500 nm (AtSHMT4) from the quinonoid intermediate formed
(§7) measured at equilibrium. Right-side charts show double reciprocal plots of data shown in left-side panels ﬁtted to a […]

AtSHMT4 [2] = biological target: T2, AtSHMT4 (Arabidopsis thaliana, UniProt O23254); assay: as above; settings: AtSHMT4, 20 mM KPi pH 7.3, 30 °C, glycine 10 mM, 5-formyl-THF varied; read-out: Ki (inhibition constant, antifolate binding to the enzyme-glycine complex)
T2 construct: The open reading frames coding for AtSHMT2 41–517 fragment and full-length AtSHMT4 were amplified; His6 (N, cleaved yes); made in house; host or cells: E. coli BL21 Gold
T2 sequence (O23254 1-471): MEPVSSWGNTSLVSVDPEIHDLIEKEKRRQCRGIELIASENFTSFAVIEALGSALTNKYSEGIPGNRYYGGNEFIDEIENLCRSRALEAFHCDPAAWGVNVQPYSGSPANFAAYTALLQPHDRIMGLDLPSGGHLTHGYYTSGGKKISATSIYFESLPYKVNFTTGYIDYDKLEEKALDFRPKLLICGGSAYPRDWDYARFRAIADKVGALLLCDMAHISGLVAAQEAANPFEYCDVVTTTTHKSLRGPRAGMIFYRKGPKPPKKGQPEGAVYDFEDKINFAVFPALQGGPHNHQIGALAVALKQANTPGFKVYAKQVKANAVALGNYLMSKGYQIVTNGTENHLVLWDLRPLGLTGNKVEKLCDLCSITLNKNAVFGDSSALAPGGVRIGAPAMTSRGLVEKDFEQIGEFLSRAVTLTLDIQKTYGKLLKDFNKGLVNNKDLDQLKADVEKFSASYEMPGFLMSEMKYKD
Text: as §1, §2, §3, §4, §5, §6, §7

hcSHMT = settings: cited from earlier work
[3] = set-up: method as in PMID 9067281; settings: PTX (or its polyglutamylated forms); cited from earlier work
AtSHMT2 [4] = biological target: T1, AtSHMT2; assay: SHMT forward reaction (serine + THF), coupled assay, initial velocity; format: biochemical; settings: read-out: KM THF; AtSHMT2, pH 6.5, 30 mM L-serine fixed, 30 °C
Procedure: (§8) Figure 2 Dependence of AtSHMT2 and AtSHMT4 activity on pH. The initial velocity of the SHMT forward reaction was measured at different pH values with AtSHMT2 and AtSHMT4 (0.2 μM) using a fixed concentration of one substrate while varying the concentration of the other substrate. The fixed L-serine concentration was saturating. […] All experimental points are the average ± standard deviation of three independent measurements. […] Reactions were carried out at 30 °C.
(§9) Activities were measured at different pH values (6.0, 7.0, 8.5 and 9.5). For pH 6.0, 7.0 and 8.5, the assays were performed in 20 mM phosphate buffer. Measurements at pH 9.5 were performed in a mixture of 50 mM MES, 50 mM HEPES, and 50 mM CHES and the final pH was adjusted with KOH.

AtSHMT4 [5] = biological target: T2, AtSHMT4; assay: as above; format: biochemical; settings: read-out: KM THF, 30 °C
Procedure: as §8, §9

AtSHMT3 = system: AtSHMT3; set-up: method as in PMID 20518745; settings: read-out: KM for THF; cited from earlier work
[6] = substrate: N[C@@H](CO)C(=O)O; assay: purified protein, by the assay type; format: biochemical, Arabidopsis thaliana; settings: 30 °C
[7] = other: AtSHMT2, pH 6.5, 180 µM THF fixed, pH 6.5
[8] = other: AtSHMT2, pH 7, 180 µM THF fixed, pH 7.0
[9] = other: AtSHMT2, pH 8, 180 µM THF fixed, pH 8.0
[10] = other: AtSHMT2, pH 8.5, 180 µM THF fixed, pH 8.5
[11] = other: AtSHMT2, pH 9.5, 180 µM THF fixed, pH 9.5
[12] = other: AtSHMT4, pH 6.5, 30 µM THF fixed, pH 6.5
[13] = other: AtSHMT4, pH 7, 30 µM THF fixed, pH 7.0
[14] = other: AtSHMT4, pH 8, 50 µM THF fixed, pH 8.0
[15] = other: AtSHMT4, pH 8.5, 80 µM THF fixed, pH 8.5
[16] = other: AtSHMT4, pH 9.5, 100 µM THF fixed, pH 9.5

In the case of `CN(Cc1cnc2nc(N)nc(N)c2n1)c1ccc(C(=O)N[C@@H](CCC(=O)O)C(=O)O)cc1` [MTX, methotrexate], the Ki (AtSHMT2 [1]) is given as 270 µM, the Ki (AtSHMT4 [2]) is given as 179 µM and the Ki (hcSHMT; ref Paiardini et al.[45], read-out: KiMTX (apparent inhibition constant)) is given as 201 µM.

In the case of `Nc1nc2[nH]cc(CCc3ccc(C(=O)N[C@@H](CCC(=O)O)C(=O)O)cc3)c2c(=O)[nH]1` [PTX, pemetrexed], the Ki (AtSHMT2 [1]) is given as 119 µM, the Ki (AtSHMT4 [2]) is given as 95 µM and 95.1 µM and the Intracellular concentration [3] is given as 10 to 30 µM. For the same molecule, the Ki (hcSHMT; ref Daidone et al.[26], read-out: KiPTX (inhibition constant)) was 19.1 µM.

Molecule tetrahydrofolate [THF] has a Km (AtSHMT2 [4]) of 83.6 ± 8.1 µM, a Km (AtSHMT4 [5]; AtSHMT4, pH 6.5, 30 mM L-serine fixed) of 7.87 ± 1.62 µM and a Km (AtSHMT4 [5]; AtSHMT4, pH 7, 30 mM L-serine fixed) of 15 ± 1.87 µM. For the same molecule, the Km (AtSHMT4 [5]; AtSHMT4, pH 8, 30 mM L-serine fixed) was 23.8 ± 3.99 µM, the Km (AtSHMT4 [5]; AtSHMT4, pH 8.5, 30 mM L-serine fixed) was 33.8 ± 5.63 µM and the Km (AtSHMT3) was 218 µM.

B1: AtSHMT2 (Arabidopsis thaliana) (protein)
chain: T1 sequence (Q94C74 41-517)
notes: the protein N-truncated at E41; The open reading frames coding for AtSHMT2 41–517 fragment; His6 (N, cleaved yes); made in house; host or cells: E. coli BL21 Gold
Work on B1 yielded a Km [6, 7] of 11650 ± 2030 µM, a kcat/Km [6, 7] of 450 M⁻¹ s⁻¹ and a Km [6, 8] of 8050 ± 1360 µM. It also gave a kcat/Km [6, 8] of 1010 M⁻¹ s⁻¹, a Km [6, 9] of 2860 ± 300 µM and a kcat/Km [6, 9] of 4530 M⁻¹ s⁻¹. It also gave a Km [6, 10] of 1780 ± 220 µM, a kcat/Km [6, 10] of 11600 M⁻¹ s⁻¹ and a Km [6, 11] of 710 ± 90 µM. It also gave a kcat/Km [6, 11] of 30700 M⁻¹ s⁻¹.

B2: AtSHMT4 (Arabidopsis thaliana) (protein)
chain: T2 sequence (O23254 1-471)
notes: The open reading frames coding for AtSHMT2 41–517 fragment and full-length AtSHMT4 were amplified; His6 (N, cleaved yes); made in house; host or cells: E. coli BL21 Gold
B2 showed a Km [6, 12] of 2560 ± 260 µM, a kcat/Km [6, 12] of 4630 M⁻¹ s⁻¹ and a Km [6, 13] of 540 ± 50 µM. The kcat/Km [6, 13] was 30000 M⁻¹ s⁻¹, the Km [6, 14] was 300 ± 20 µM and the kcat/Km [6, 14] was 57900 M⁻¹ s⁻¹. For the same molecule, the Km [6, 15] was 240 ± 20 µM, the kcat/Km [6, 15] was 81500 M⁻¹ s⁻¹ and the Km [6, 16] was 200 ± 20 µM. For the same molecule, the kcat/Km [6, 16] was 90800 M⁻¹ s⁻¹.
